Measurements published in paper PMC4809751.

Target: ZbmA, the zorbamycin (ZBM)-binding protein of Streptomyces flavoviridis ATCC21892 (unmodified, as cocrystallised with Cu(II)-ZBM) (Streptomyces flavoviridis ATCC21892)
Test: crystal structure

Work on “ZbmA, the zorbamycin (ZBM)-binding protein of Streptomyces flavoviridis ATCC21892 (unmodified, as cocrystallised with Cu(II)-ZBM) (natural protein)” yielded a stoichiometry N of 2.
